Laboratory results taken from patent publication US20150225472A1.

Biological target: Light chain of BDD-Factor VIII (FVIII: C light chain) expressed in Pichia pastoris GS115 (Homo sapiens (Human)) (UniProt P00451)
Test: cell-based or functional assay

Chain of Light chain of BDD-Factor VIII (FVIII: C light chain) expressed in Pichia pastoris GS115 (Homo sapiens (Human)) (P00451 other isoform, or with tags, fused parts or gaps limits assumed): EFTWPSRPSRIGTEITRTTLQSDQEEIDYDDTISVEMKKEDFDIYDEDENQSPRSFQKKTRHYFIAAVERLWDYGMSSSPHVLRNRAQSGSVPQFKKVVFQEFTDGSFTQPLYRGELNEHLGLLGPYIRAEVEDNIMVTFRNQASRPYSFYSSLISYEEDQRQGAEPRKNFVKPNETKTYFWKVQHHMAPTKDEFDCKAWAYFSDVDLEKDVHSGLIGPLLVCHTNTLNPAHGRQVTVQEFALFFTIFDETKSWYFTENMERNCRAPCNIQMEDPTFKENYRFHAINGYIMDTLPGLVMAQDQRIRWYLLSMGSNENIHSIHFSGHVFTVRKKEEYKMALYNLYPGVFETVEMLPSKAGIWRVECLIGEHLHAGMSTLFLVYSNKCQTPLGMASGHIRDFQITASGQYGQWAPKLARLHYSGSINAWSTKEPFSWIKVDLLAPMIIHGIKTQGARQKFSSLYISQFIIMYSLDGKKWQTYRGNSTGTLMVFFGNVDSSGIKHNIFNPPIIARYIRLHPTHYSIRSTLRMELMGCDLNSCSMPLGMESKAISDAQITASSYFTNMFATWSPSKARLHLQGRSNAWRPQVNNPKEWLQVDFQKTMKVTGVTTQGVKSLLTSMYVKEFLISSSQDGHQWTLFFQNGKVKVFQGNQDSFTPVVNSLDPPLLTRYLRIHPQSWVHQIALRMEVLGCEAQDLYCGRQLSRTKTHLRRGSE

Question: For “Heavy chain of BDD-Factor VIII (FVIII: C heavy chain, A1 and A2 domains) expressed in Pichia pastoris GS115 (from UniProt P00451 20-759)”, which Specific Activity[IU/mg], chromogenic assay is on record?
Answer: 7660 IU/mg

Question: And the Specific Activity[IU/mg], one stage clotting assay?
Answer: 132 IU/mg
